Laboratory results as given in patent US20180356429A1 (Genentech, published 2018).

Columns and labels:
[1] = target: T1, native IL-13 in human serum (human, UniProt P35225 33-146); test: pre-incubation of serum with excess (100 ug/mL) capture antibody for 1 h at room temperature, then IMPACT IL-13 sandwich assay
T1 construct: Endogenous IL-13 in serum of healthy volunteers and of patients with asthma, IPF or atopic dermatitis; also called serum IL-13; endogenous IL-13

[2] = target: T2, Recombinant human IL-13 (R&D Systems, MN, catalog no. 213-ILB/CF) (human, UniProt P35225 33-146); test: sandwich pair screen, 100 pg/mL recombinant IL-13 against blank, binder is detection Ab 11H4; capture Ab MILR1444A
T2 construct: also called recombinant IL-13
T2 sequence (P35225 other isoform, or with tags, fused parts or gaps): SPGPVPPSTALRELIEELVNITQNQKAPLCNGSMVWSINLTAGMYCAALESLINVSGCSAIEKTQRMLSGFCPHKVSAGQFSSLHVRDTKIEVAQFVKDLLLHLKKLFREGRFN

[3] = target: T2, Recombinant human IL-13 (R&D Systems, …); test: sandwich pair screen, 100 pg/mL recombinant IL-13 against blank, binder is detection Ab 11H4; capture Ab 228B/C

T1 sequence (P35225 other isoform, or with tags, fused parts or gaps): as above

binding result [1] | positive/negative ratio [2] | positive/negative ratio [3] | Binder
binds |  |  | biotinylated lebrikizumab F(ab')2 (other, biotinylated (sites not given), F(ab')2 fragment of lebrikizumab, the capture reagent of the IMPACT IL-13 assay; also called capture antibody; first antibody) VH: VTLRESGPALVKPTQTLTLTCTVSGFSLSAYSVNWIRQPPGKALEWLAMIWGDGKIVYNSALKSRLTISKDTSKNQVVLTMTNMDPVDTATYYCAGDGYYPYAMDNWGQGSLVTVSS VL: DIVMTQSPDSLSVSLGERATINCRASKSVDSYGNSFMHWYQQKPGQPPKLLIYLASNLESGVPDRFSGSGSGTDFTLTISSLQAEDVAVYYCQQNNEDPRTFGGGTKVEIK
 | 22800 | 317 | 11H4 (anti-IL-13 mu11H4) (antibody, IgG1, V domains shown, Murine antibody; In the IMPACT IL-13 assay it was used as full-length IgG1 labelled with digoxigenin) VH: QVTLKESGPGILQPSQTLSLTCSFSGFSLSTSDMGVGWIRQPSGKGLEWLAHIWWDDVKRYNPALKSRLTISKDTSSSQVFLKIASVDTADTATYYCARIGTNYGYDGLFDYWGQGTTLTVSS VL: DIVLTQSPASLAVSLGQRATISCRASQSVSTSSYSYMNWYQQTPGQPPKLLIKYASNLESGIPARFSGSGSGTDFTLNIHPVEEEDTATYYCQHSWEIPYTFGGGT
